B1: Thyroid receptor-interacting protein 6 (Homo sapiens), Q15654 (parent)
chain: MSGPTWLPPKQPEPARAPQGRAIPRGTPGPPPAHGAALQPHPRVNFCPLPSEQCYQAPGGPEDRGPAWVGSHGVLQHTQGLPADRGGLRPGSLDAEIDLLSSTLAELNGGRGHASRRPDRQAYEPPPPPAYRTGSLKPNPASPLPASPYGGPTPASYTTASTPAGPAFPVQVKVAQPVRGCGPPRRGASQASGPLPGPHFPLPGRGEVWGPGYRSQREPGPGAKEEAAGVSGPAGRGRGGEHGPQVPLSQPPEDELDRLTKKLVHDMNHPPSGEYFGQCGGCGEDVVGDGAGVVALDRVFHVGCFVCSTCRAQLRGQHFYAVERRAYCEGCYVATLEKCATCSQPILDRILRAMGKAYHPGCFTCVVCHRGLDGIPFTVDATSQIHCIEDFHRKFAPRCSVCGGAIMPEPGQEETVRIVALDRSFHIGCYKCEECGLLLSSEGECQGCYPLDGHILCKACSAWRIQELSATVTTDC

How the values were obtained:
Conditions in all cases: with scrib_human SCRIB
[1] = variants of: B1
[2] = variants of: B1; remark: listed apart in the source
[3] = variants of: B1; remark: listed apart in the source
[4] = variants of: B1; remark: listed apart in the source

MSGPTWLPPKQPEPARAPQGRAIPRGTPGPPPAHGAALQPHPRVNFCPLPSEQCYQAPGGPEDRGPAWVGSHGVLQHTQGLPADRGGLRPGSLDAEIDLLSSTLAELNGGRGHASRRPDRQAYEPPPPPAYRTGSLKPNPASPLPASPYGGPTPASYTTASTPAGPAFPVQVKVAQPVRGCGPPRRGASQASGPLPGPHFPLPGRGEVWGPGYRSQREPGPGAKEEAAGVSGPAGRGRGGEHGPQVPLSQPPEDELDRLTKKLVHDMNHPPSGEYFGQCGGCGEDVVGDGAGVVALDRVFHVGCFVCSTCRAQLRGQHFYAVERRAYCEGCYVATLEKCATCSQPILDRILRAMGKAYHPGCFTCVVCHRGLDGIPFTVDATSQIHCIEDFHRKFAPRCSVCGGAIMPEPGQEETVRIVALDRSFHIGCYKCEECGLLLSSEGECQGCYPLDGHILCKACSAWRIQELSATVTTDA [C476A]
effect of a mutation on the interaction [1]: disrupting interaction
effect of a mutation on the interaction [2]: decreasing interaction

MSGPTWLPPKQPEPARAPQGRAIPRGTPGPPPAHGAALQPHPRVNFCPLPSEQCYQAPGGPEDRGPAWVGSHGVLQHTQGLPADRGGLRPGSLDAEIDLLSSTLAELNGGRGHASRRPDRQAYEPPPPPAYRTGSLKPNPASPLPASPYGGPTPASYTTASTPAGPAFPVQVKVAQPVRGCGPPRRGASQASGPLPGPHFPLPGRGEVWGPGYRSQREPGPGAKEEAAGVSGPAGRGRGGEHGPQVPLSQPPEDELDRLTKKLVHDMNHPPSGEYFGQCGGCGEDVVGDGAGVVALDRVFHVGCFVCSTCRAQLRGQHFYAVERRAYCEGCYVATLEKCATCSQPILDRILRAMGKAYHPGCFTCVVCHRGLDGIPFTVDATSQIHCIEDFHRKFAPRCSVCGGAIMPEPGQEETVRIVALDRSFHIGCYKCEECGLLLSSEGECQGCYPLDGHILCKACSAWRIQELSATVTADC [T474A]
effect of a mutation on the interaction [3]: disrupting interaction
effect of a mutation on the interaction [4]: decreasing interaction

— IntAct's records for PubMed 16137684
